Test results taken from PMC9669668.
Where two headings read alike, the source gives them in different places.

What was measured:
[1] = target: nucleotide-binding domain of Hsp70 (Hsp70 NBD, aa 1–382) (human) (UniProt P0DMV8); assay: ITC
[2] = target: nucleotide-binding domain of Hsp70 (Hsp70 NBD, aa 1–382) (human) (UniProt P0DMV8); assay: ITC; remark: listed apart in the source

Chain of UniProt P0DMV8 (P0DMV8 1-382): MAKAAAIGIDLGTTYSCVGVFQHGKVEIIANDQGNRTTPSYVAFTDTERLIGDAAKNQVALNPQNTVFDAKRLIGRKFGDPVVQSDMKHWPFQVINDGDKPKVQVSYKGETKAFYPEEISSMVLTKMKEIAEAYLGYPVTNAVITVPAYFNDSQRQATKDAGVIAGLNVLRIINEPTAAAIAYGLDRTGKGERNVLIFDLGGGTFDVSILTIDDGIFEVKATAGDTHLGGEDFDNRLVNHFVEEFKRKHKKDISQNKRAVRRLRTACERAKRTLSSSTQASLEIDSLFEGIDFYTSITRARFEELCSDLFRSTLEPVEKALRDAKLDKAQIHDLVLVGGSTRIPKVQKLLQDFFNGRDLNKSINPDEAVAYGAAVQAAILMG

FAF1 (aa 1–171) (from UniProt Q9UNN5 1-171) (domain or fragment)
Kd [1]: 15.9 µM | stoichiometry N [1]: 1 | Kd [2]: 56.5 µM

FAF1 L-UBL1 (aa 91–171) (from UniProt Q9UNN5 91-171) (domain or fragment)
Kd [1]: 3.1 µM | stoichiometry N [1]: 1 | Kd [2]: 3.1 µM
